# Data from US20210292396A1.
# Changes are numbered by the printed parent chain.
# B1: ePGT121.18 (ePGT121.18.H1 VH and ePGT121.17.L1 VL) (antibody, V domains shown)
# VH: QMQLQESGPGLVKPGETLSLTCSVSGASISSSYWSWLRETPGKGLEWIGYTHHSGDTNYAPSLKSRVHLGLHPSKNQVSLSLTSVTAADTAVYYCARTLHGRRIYGVVAFNEYYTYFYWPTWGKGTQVTVSS
# VL: SDISVAPGETVRITCGGESIGSRAVQWYQHRPGQAPRLIIYNNQDRPPGIPERFSGSPDIDFGTTATLTISNVEAGDEATYYCHIWDSRRPTNWELGPGTTLTVL
# B2: ePGT121.18.17 (ePGT121.18.H17 VH and ePGT121.17.L1 VL) (antibody, V domains shown)
# VH: B1 VH with H68T, L69I, H72D
# VL: B1 VL
# B3: ePGT121.15.H2.L1 (antibody, V domains shown)
# VH: B1 VH with Y113W, Y114F, P120E, T121V
# VL: B1 VL with T14S, P32A, R37K, S71T, E95V, L96F, P98G
# Legend:
# Assay in all cases: cell-based or functional assay
# [1] = target: Env of HIV isolate KER2008.12 (clade A) (HIV)
# [2] = target: Env of HIV isolate TV1.29 (clade C) (HIV)
# [3] = target: HIV Env of isolate CH181.12 (HIV)
# [4] = target: Env of HIV isolate 6405.v4.c34 (clade D) (HIV)
# [5] = target: HIV Env of isolate 25711-2.4 (HIV)
# [6] = target: Env of HIV isolate A03349M1.vrc4a (clade D) (HIV)
# [7] = target: Env of HIV isolate 6540.v4.c1 (clade AC) (HIV)
# [8] = target: HIV Env of isolate CNE53 (HIV)
# [9] = target: Env of HIV isolate CNE58 (clade C in Table 7) (HIV)
# [10] = target: Env of HIV isolate 263-8 (clade AG) (HIV)
# [11] = target: Env of HIV isolate CNE31 (clade C) (HIV)
# [12] = target: Env of HIV isolate 0260.v5.c36 (clade A) (HIV)
# [13] = target: HIV Env of isolate 6471.v1.c16 (HIV)
# [14] = target: Envelope protein of SVA.MLV (clade NA)
# [15] = target: Env of HIV isolate SS1196.01 (clade B) (HIV)
# [16] = target: Env of HIV isolate C1080.c3 (clade AE) (HIV)
# [17] = target: Env of HIV isolate UG037.8 (clade A) (HIV)
# [18] = target: Env of HIV isolate T278-50 (clade AG) (HIV)
# [19] = target: HIV Env of isolate ZM109.4 (HIV)
# [20] = target: Env of HIV isolate 426c (clade C) (HIV)
# [21] = target: HIV Env of isolate CH119.10 (HIV)
# [22] = target: HIV Env of isolate CNE15 (HIV)
# [23] = target: Env of HIV isolate BR07.DG (clade B) (HIV)
# [24] = target: Env of HIV isolate 45_01dG5 (clade B) (HIV)
# [25] = target: Env of HIV isolate SF162.LS (clade B) (HIV)
# [26] = target: Env of HIV isolate CNE7 (clade BC) (HIV)
# [27] = target: HIV Env of isolate A07412M1.vrc12 (HIV)
# [28] = target: Envelope protein of SIVmac251.30.SG3 (clade NA)
# [29] = target: HIV Env of isolate 96ZM651.02 (HIV)
# [30] = target: Env of HIV isolate TRJO.58 (clade B) (HIV)
# [31] = target: HIV Env of isolate 6644.v2.c33 (HIV)
# [32] = target: HIV Env of isolate 247-23 (HIV)
# [33] = target: Env of HIV isolate 247-23 (clade D) (HIV)
# [34] = target: Env of HIV isolate ZM53.12 (clade C) (HIV)
# [35] = target: HIV Env of isolate 00836-2.5 (HIV)
# [36] = target: Env of HIV isolate 235-47 (clade AG) (HIV)
# [37] = target: Env of HIV isolate DU151.02 (clade C) (HIV)
# [38] = target: Env of HIV isolate CM244.ec1 (clade AE) (HIV)
# [39] = target: Env of HIV isolate CAP45.G3 (clade C) (HIV)
# [40] = target: Env of HIV isolate RHPA.7 (clade B) (HIV)
# [41] = target: Env of HIV isolate 3873.v1.c24 (clade C) (HIV)
# [42] = target: HIV Env of isolate 3637.v5.c3 (HIV)
# [43] = target: HIV Env of isolate X1193.c1 (HIV)
# [44] = target: Env of HIV isolate CNE56 (clade AE) (HIV)
# [45] = target: Env of HIV isolate 25925-2.22 (clade C) (HIV)
# [46] = target: Env of HIV isolate 3718.v3.c11 (clade A) (HIV)
# [47] = target: HIV Env of isolate 286.36 (HIV)
# [48] = target: HIV Env of isolate 001428-2.42 (HIV)
# [49] = target: Env of HIV isolate 0013095-2.11 (clade C) (HIV)
# [50] = target: HIV Env of isolate ZM53.12 (HIV)
binder,measurement,setting,value
B1,"IC50, pseudovirus neutralization",[1],0.003 µg/mL
same,"IC50, pseudovirus neutralization",[2],0.002 µg/mL
same,"IC80, pseudovirus neutralization (M1)",[3],0.003 µg/mL
same,"IC80, pseudovirus neutralization (M2)",[3],0.004 µg/mL
same,"IC50, pseudovirus neutralization",[4],0.001 µg/mL
same,"IC80, pseudovirus neutralization (M1)",[5],0.005 µg/mL
same,"IC80, pseudovirus neutralization (M2)",[5],0.006 µg/mL
same,"IC50, pseudovirus neutralization",[6],0.002 µg/mL
same,"IC50, pseudovirus neutralization",[7],> 50 µg/mL
same,"IC80, pseudovirus neutralization (M1)",[8],0.006 µg/mL
same,"IC80, pseudovirus neutralization (M2)",[8],0.009 µg/mL
same,"IC50, pseudovirus neutralization",[9],0.016 µg/mL
same,"IC50, pseudovirus neutralization",[10],0.004 µg/mL
same,"IC50, pseudovirus neutralization",[11],0.015 µg/mL
same,"IC50, pseudovirus neutralization",[12],0.002 µg/mL
same,"IC80, pseudovirus neutralization (M1)",[13],2.94 µg/mL
same,"IC80, pseudovirus neutralization (M2)",[13],2.62 µg/mL
same,"IC50, pseudovirus neutralization",[14],> 50 µg/mL
same,"IC50, pseudovirus neutralization",[15],0.002 µg/mL
same,"IC50, pseudovirus neutralization",[16],> 50 µg/mL
same,"IC50, pseudovirus neutralization",[17],0.002 µg/mL
same,"IC50, pseudovirus neutralization",[18],1.17 µg/mL
same,"IC80, pseudovirus neutralization (M1)",[19],> 50 µg/mL
same,"IC80, pseudovirus neutralization (M2)",[19],> 50 µg/mL
same,"IC50, pseudovirus neutralization",[20],0.065 µg/mL
same,"IC80, pseudovirus neutralization (M1)",[21],0.01 µg/mL
same,"IC80, pseudovirus neutralization (M2)",[21],0.014 µg/mL
same,"IC80, pseudovirus neutralization (M1)",[22],36.4 µg/mL
same,"IC80, pseudovirus neutralization (M2)",[22],> 50 µg/mL
same,"IC50, pseudovirus neutralization",[23],0.005 µg/mL
same,"IC50, pseudovirus neutralization",[24],0.001 µg/mL
same,"IC50, pseudovirus neutralization",[25],0.002 µg/mL
same,"IC50, pseudovirus neutralization",[26],0.003 µg/mL
same,"IC80, pseudovirus neutralization (M1)",[27],0.007 µg/mL
same,"IC80, pseudovirus neutralization (M2)",[27],0.006 µg/mL
same,"IC50, pseudovirus neutralization",[28],> 50 µg/mL
same,"IC80, pseudovirus neutralization (M1)",[29],0.002 µg/mL
same,"IC80, pseudovirus neutralization (M2)",[29],0.003 µg/mL
same,"IC50, pseudovirus neutralization",[30],0.003 µg/mL
same,"IC80, pseudovirus neutralization (M1)",[31],0.005 µg/mL
same,"IC80, pseudovirus neutralization (M2)",[31],0.006 µg/mL
same,"IC80, pseudovirus neutralization (M1)",[32],> 50 µg/mL
same,"IC80, pseudovirus neutralization (M2)",[32],> 50 µg/mL
same,"IC50, pseudovirus neutralization",[33],> 50 µg/mL
same,"IC50, pseudovirus neutralization",[34],0.003 µg/mL
same,"IC80, pseudovirus neutralization (M1)",[35],> 50 µg/mL
same,"IC80, pseudovirus neutralization (M2)",[35],> 50 µg/mL
same,"IC50, pseudovirus neutralization",[36],0.006 µg/mL
same,"IC50, pseudovirus neutralization",[37],0.001 µg/mL
same,"IC50, pseudovirus neutralization",[38],0.46 µg/mL
same,"IC50, pseudovirus neutralization",[39],1.74 µg/mL
same,"IC50, pseudovirus neutralization",[40],0.002 µg/mL
same,"IC50, pseudovirus neutralization",[41],0.003 µg/mL
same,"IC80, pseudovirus neutralization (M1)",[42],> 50 µg/mL
same,"IC80, pseudovirus neutralization (M2)",[42],> 50 µg/mL
same,"IC80, pseudovirus neutralization (M1)",[43],0.004 µg/mL
same,"IC80, pseudovirus neutralization (M2)",[43],0.005 µg/mL
same,"IC50, pseudovirus neutralization",[44],> 50 µg/mL
same,"IC50, pseudovirus neutralization",[45],0.003 µg/mL
same,"IC50, pseudovirus neutralization",[46],0.267 µg/mL
same,"IC80, pseudovirus neutralization (M1)",[47],0.003 µg/mL
same,"IC80, pseudovirus neutralization (M2)",[47],0.004 µg/mL
same,"IC80, pseudovirus neutralization (M1)",[48],0.003 µg/mL
same,"IC80, pseudovirus neutralization (M2)",[48],0.004 µg/mL
same,"IC50, pseudovirus neutralization",[49],0.537 µg/mL
same,"IC80, pseudovirus neutralization (M1)",[50],0.02 µg/mL
same,"IC80, pseudovirus neutralization (M2)",[50],0.032 µg/mL
B2,"IC50, pseudovirus neutralization",[1],0.01 µg/mL
same,"IC50, pseudovirus neutralization",[2],0.011 µg/mL
same,"IC80, pseudovirus neutralization",[3],0.011 µg/mL
same,"IC50, pseudovirus neutralization",[4],0.004 µg/mL
same,"IC80, pseudovirus neutralization",[5],0.017 µg/mL
same,"IC50, pseudovirus neutralization",[6],0.009 µg/mL
same,"IC50, pseudovirus neutralization",[7],> 50 µg/mL
same,"IC80, pseudovirus neutralization",[8],0.019 µg/mL
same,"IC50, pseudovirus neutralization",[9],0.053 µg/mL
same,"IC50, pseudovirus neutralization",[10],0.02 µg/mL
same,"IC50, pseudovirus neutralization",[11],0.089 µg/mL
same,"IC50, pseudovirus neutralization",[12],0.009 µg/mL
same,"IC80, pseudovirus neutralization",[13],10 µg/mL
same,"IC50, pseudovirus neutralization",[14],> 50 µg/mL
same,"IC50, pseudovirus neutralization",[15],0.004 µg/mL
same,"IC50, pseudovirus neutralization",[16],> 50 µg/mL
same,"IC50, pseudovirus neutralization",[17],0.009 µg/mL
same,"IC50, pseudovirus neutralization",[18],1.2 µg/mL
same,"IC80, pseudovirus neutralization",[19],> 50 µg/mL
same,"IC50, pseudovirus neutralization",[20],0.26 µg/mL
same,"IC80, pseudovirus neutralization",[21],0.028 µg/mL
same,"IC80, pseudovirus neutralization",[22],> 50 µg/mL
same,"IC50, pseudovirus neutralization",[23],0.008 µg/mL
same,"IC50, pseudovirus neutralization",[24],0.003 µg/mL
same,"IC50, pseudovirus neutralization",[25],0.003 µg/mL
same,"IC50, pseudovirus neutralization",[26],0.007 µg/mL
same,"IC80, pseudovirus neutralization",[27],0.011 µg/mL
same,"IC50, pseudovirus neutralization",[28],> 50 µg/mL
same,"IC80, pseudovirus neutralization",[29],0.006 µg/mL
same,"IC50, pseudovirus neutralization",[30],0.023 µg/mL
same,"IC80, pseudovirus neutralization",[31],0.015 µg/mL
same,"IC80, pseudovirus neutralization",[32],> 50 µg/mL
same,"IC50, pseudovirus neutralization",[33],> 50 µg/mL
same,"IC50, pseudovirus neutralization",[34],0.015 µg/mL
same,"IC80, pseudovirus neutralization",[35],> 50 µg/mL
same,"IC50, pseudovirus neutralization",[36],0.022 µg/mL
same,"IC50, pseudovirus neutralization",[37],0.003 µg/mL
same,"IC50, pseudovirus neutralization",[38],7.23 µg/mL
same,"IC50, pseudovirus neutralization",[39],8.91 µg/mL
same,"IC50, pseudovirus neutralization",[40],0.004 µg/mL
same,"IC50, pseudovirus neutralization",[41],0.011 µg/mL
same,"IC80, pseudovirus neutralization",[42],> 50 µg/mL
same,"IC80, pseudovirus neutralization",[43],0.013 µg/mL
same,"IC50, pseudovirus neutralization",[44],> 50 µg/mL
same,"IC50, pseudovirus neutralization",[45],0.011 µg/mL
same,"IC50, pseudovirus neutralization",[46],0.957 µg/mL
same,"IC80, pseudovirus neutralization",[47],0.006 µg/mL
same,"IC80, pseudovirus neutralization",[48],0.008 µg/mL
same,"IC50, pseudovirus neutralization",[49],1.68 µg/mL
same,"IC80, pseudovirus neutralization",[50],0.079 µg/mL
B3,neutralization (Table 6 value),[8],0.00162
same,neutralization (Table 6 value),[27],0.000944
